# “And” between values parts separate entries of the source, which are not always exact repeats. Identical values can stand only once.
# B1: sulfamidase modified with R1 oxidation at 22 °C, 120 min, 10 mmol/L sodium meta-periodate (enzyme)
# chain: RPRNALLLLADDGGFESGAYNNSAIATPHLDALARRSLLFRNAFTSVSSCSPSRASLLTGLPQHQNGMYGLHQDVHHFNSFDKVRSLPLLLSQAGVRTGIIGKKHVGPETVYPFDFAYTEENGSVLQVGRNITRIKLLVRKFLQTQDDRPFFLYVAFHDPHRCGHSQPQYGTFCEKFGNGESGMGRIPDWTPQAYDPLDVLVPYFVPNTPAARADLAAQYTTVGRMDQGVGLVLQELRDAGVLNDTLVIFTSDNGIPFPSGRTNLYWPGTAEPLLVSSPEHPKRWGQVSEAYVSLLDLTPTILDWFSIPYPSYAIFGSKTIHLTGRSLLPALEAEPLWATVFGSQSHHEVTMSYPMRSVQHRHFRLVHNLNFKMPFPIDQDFYVSPTFQDLLNRTTAGQPTGWYKDLRHYYYRARWELYDRSRDPHETQNLATDPRFAQLLEMLRDQLAKWQWETHDPWVCAPDGVLEEKLSPQCQPLHNEL
# modifications: N-glycans oxidised with periodate (22 °C, 120 min, 10 mmol/L), then reduced with borohydride as in new method 1
# B2: sulfamidase modified with R1 oxidation at 0 °C, 120 min, 10 mmol/L sodium meta-periodate (enzyme)
# chain: B1 chain
# modifications: N-glycans oxidised with periodate (0 °C, 120 min, 10 mmol/L), then reduced with borohydride as in new method 1
# B3: sulfamidase modified with R1 oxidation at 22 °C, 120 min, 40 mmol/L sodium meta-periodate (enzyme)
# chain: B1 chain
# modifications: N-glycans oxidised with periodate (22 °C, 120 min, 40 mmol/L), then reduced with borohydride as in new method 1
# B4: sulfamidase modified with R1 oxidation at 22 °C, 30 min, 10 mmol/L sodium meta-periodate (enzyme)
# chain: B1 chain
# modifications: N-glycans oxidised with periodate (22 °C, 30 min, 10 mmol/L), then reduced with borohydride as in new method 1
# B5: sulfamidase modified with R1 oxidation at 0 °C, 30 min, 10 mmol/L sodium meta-periodate (enzyme)
# chain: B1 chain
# modifications: N-glycans oxidised with periodate (0 °C, 30 min, 10 mmol/L), then reduced with borohydride as in new method 1
# B6: sulfamidase modified according to new method 4 (enzyme)
# chain: B1 chain
# modifications: N-glycans oxidised with 20 mM sodium meta-periodate (0 °C, 120 min) and reduced with 10 mM sodium borohydride; FGly50 about 11% converted to Ser
# B7: sulfamidase modified according to the known method (WO 2008/109677) (enzyme)
# chain: B1 chain
# modifications: N-glycans oxidised with 20 mM sodium meta-periodate (6.5 h) and reduced with 100 mM sodium borohydride (overnight); FGly50 about 56% converted to Ser; Met184 and Met443 almost completely oxidised
# B8: sulfamidase modified according to new method 1 (enzyme)
# chain: B1 chain
# modifications: N-glycans oxidised with 20 mM sodium meta-periodate (0 °C, 120 min) and reduced with 50 mM sodium borohydride (0 °C, 120 min); FGly50 about 45% converted to Ser
# B9: sulfamidase modified with R1 oxidation at 0 °C, 30 min, 40 mmol/L sodium meta-periodate (enzyme)
# chain: B1 chain
# modifications: N-glycans oxidised with periodate (0 °C, 30 min, 40 mmol/L), then reduced with borohydride as in new method 1
# B10: sulfamidase modified with R1 oxidation at 22 °C, 30 min, 40 mmol/L sodium meta-periodate (enzyme)
# chain: B1 chain
# modifications: N-glycans oxidised with periodate (22 °C, 30 min, 40 mmol/L), then reduced with borohydride as in new method 1
# B11: sulfamidase modified with R1 oxidation at 8 °C, 60 min, 20 mmol/L sodium meta-periodate (enzyme)
# chain: B1 chain
# modifications: N-glycans oxidised with periodate (8 °C, 60 min, 20 mmol/L), then reduced with borohydride as in new method 1
# B12: sulfamidase modified with R1 oxidation at 0 °C, 120 min, 40 mmol/L sodium meta-periodate (enzyme)
# chain: B1 chain
# modifications: N-glycans oxidised with periodate (0 °C, 120 min, 40 mmol/L), then reduced with borohydride as in new method 1
# Target: M6P receptors on MEF-1 fibroblasts
# Experiment: cell-based or functional assay
Cell uptake % of unmodified sulfamidase uptake (% of unmodified sulfamidase uptake),specific activity in cell homogenate (endocytosis in MEF-1 cells) (% of unmodified recombinant sulfamidase),Binder
8.5,–,B1
9.5,–,B2
3.5,–,B3
7.1,–,B4
12,–,B5
–,< 10,B6
–,< 10,B7
–,< 10,B8
3.8,–,B9
2.7,–,B10
6.1 and 6.5,–,B11
3.5,–,B12

# From patent US20180258408A1
